In US20230212305A1, “ANTI-ABCG2 ANTIBODIES AND USES THEREOF” (Kenjockety Biotechnology, Inc., priority 2020, published 2023):
Residue numbers refer to the chain shown, from its start.

T1: ABCG2 (Homo sapiens, UniProt Q9UNQ0)
T1 construct: expressed in transfected cells
T1 sequence (Q9UNQ0 1-655): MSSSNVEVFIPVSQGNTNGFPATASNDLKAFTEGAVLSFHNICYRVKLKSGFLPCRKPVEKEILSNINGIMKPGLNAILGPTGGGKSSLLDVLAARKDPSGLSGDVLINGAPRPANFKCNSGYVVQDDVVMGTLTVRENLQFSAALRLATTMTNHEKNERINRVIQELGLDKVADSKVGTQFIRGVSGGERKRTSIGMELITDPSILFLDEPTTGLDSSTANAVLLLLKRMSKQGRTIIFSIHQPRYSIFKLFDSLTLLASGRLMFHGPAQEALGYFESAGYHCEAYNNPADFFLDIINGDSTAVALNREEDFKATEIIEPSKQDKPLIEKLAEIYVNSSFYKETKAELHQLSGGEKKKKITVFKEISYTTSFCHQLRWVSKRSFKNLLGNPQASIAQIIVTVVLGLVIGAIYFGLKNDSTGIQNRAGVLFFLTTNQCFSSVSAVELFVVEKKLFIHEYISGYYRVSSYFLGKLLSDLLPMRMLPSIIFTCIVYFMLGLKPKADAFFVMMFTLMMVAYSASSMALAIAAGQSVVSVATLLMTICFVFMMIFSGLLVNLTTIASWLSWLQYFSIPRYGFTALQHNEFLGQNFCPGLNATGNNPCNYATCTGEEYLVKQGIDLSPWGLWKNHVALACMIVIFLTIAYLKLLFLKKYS

B1: G2.631 rat: anti-ABCG2 antibody raised in rat (antibody, V domains shown)
VH: EVKLLESGGGLVQSGRSLKLSCAASGFIFSRFYMAWVRQAPRKGLEWVAYISNGAGSTYYRESVKGRFIISRDNAKSTLYLQMDSLRSEDTATYYCTTVAAPWNYVMDGWGQGASVTVSS
VL: NIQITQSPSLLSASVGDRVTLSCKGSQNINNYLAWYQQKLGEAPKLLIYKTNSLHTGIPSRFSGSGSGTDYTLTISSLHSEDLATYYCYQYNNGYTFGAGTKLELK
B2: G2.248 mouse: anti-ABCG2 antibody raised in mouse, listed in Table 2 (antibody, V domains shown)
VH: QVQLQQPGAELVKPGASVKLSCKTSGFTFSNSYISWLKQKPRQSLEWIAWIYAGTGGTNYNQKFTGKAQLTVDTSSSTAYMQLSSLTSEDSAIYYCATYGNFLYAMDNWGQGTSVTVSS
VL: DIQMKQSPASLSASVGETVTITCRASGNIHNYLAWYQQKQGKSPQLLVYNTKTLADGVPSRFSGSGSGTQYSLKINSLQPEDFGSYYCQHFWSTPWTFGGGTKLEIK
B3: G2.256 mouse: anti-ABCG2 antibody raised in mouse, listed in Table 2 (antibody, V domains shown)
VH: EVQLQQSGPELVKPGASLKISCKTFGYSFTGYYMHWVKQSPEKSLEWIGKIVPSTGGTTYNQKFKAKATLTVDKSSFTAYMQLKSLTSEDSAVYYCAREKVYGYDVYYFDYWGQGTTLTVSS
VL: DIVMSQSPATLSVTPGDRVSLSCRASQSISDYLHWYQQKSHESPRLLIKYASQSISGIPSRFSGSGSGSDFTLSINSVEPEDVGVYYCQNGHSFPWTFGGGTKLEIK
B4: G2.636 rat: anti-ABCG2 antibody raised in rat (antibody, V domains shown)
VH: EVKLVESGGGLVQPGRSLKLSCAASGFTFSRFYMAWVRQAPTKGLEWVAHISHGGDTTYYRDSVKGRFTISRDNAKSTLFLQMDSLRSEDTATYYCTTSAAPWNYVMDGWGLGASVTVSS
VL: B1 VL with N1D, Q3V, I4M, S22T, Y32F
B5: G2.629 rat: anti-ABCG2 antibody raised in rat (antibody, V domains shown)
VH: EVQLVESGGGLVQPGRSLKLSCAASGFIFSRFYMAWVRQAPTKGLEWVAYINTGGGTTYYRDSVKGRFTISRDNAKTTLYLQMDSLRSEDTATYYCTTLAAPWNYVMDAWGQGASVTVSSA
VL: B1 VL with N1D, I2V, Q3V, I4M, S22T, Y32F, I48T, A99P
B6: G2.641 rat: anti-ABCG2 antibody raised in rat (antibody, V domains shown)
VH: B4 VH with V5E
VL: B1 VL with N1D, I4M, S22T, Y32F
B7: G2.642 rat: anti-ABCG2 antibody raised in rat (antibody, V domains shown)
VH: QIQLVQSGAELVKPGASVKLSCKTSGFTFSSNYISWLRQKPRQSLEWIAWIYSGTGGTYYNQKFTGKAQLTIDTSSNTAYMQLSSLTSEDSAIYYCARHVGLRYWYFDVWGAGTSVTVSS
VL: DIVLTQSPASLTVSLGQRATISCRASESVDSNGNSFMHWYQQKPGQSPKVLIYRASNLESGVPARFSGSGSRTDFTLTINPVEADDVATYYCQQSNEDPWTFGGGTKLEIKREF
B8: G2.255 mouse: anti-ABCG2 antibody raised in mouse, listed in Table 2 (antibody, V domains shown)
VH: EVMLVESGGALVKPGGSLKLSCAASGFTFSNNAMSWVRQTPETRLEWVATITGGGSYTYYPDSVKGRFTISRDNARNTLYLQMSSLRSEDTATYYCASPDGNYEGVLAYWGQGTLVTVSA
VL: DIQMNQSPSSLSASLGDRVTISCSASQGISNYLNWYQQKPDGTIKLLIYYTSTLHSGVPSRFSGSGSGTDYSLTISNLEPEDIATYYCQHYSSLPWTFGGGTKLEIK
B9: G2.333 rat: anti-ABCG2 antibody raised in rat (antibody, V domains shown)
VH: EIQLQESGPGLVKPSQSLSLTCSVTGYTITSGYDWTWLRKFPGNKMEWMGYISYSGFTNYNPSLRSRISISRDTSKNQFFLQLNSVTTEDTATYYCARTRGYNPFPYWGQGTLVTVSS
VL: DIQMTQSPSLLSASVGDRVSLSCKAGRNVNNYLAWYQQKLGKPPKLLIYNSNSLQTGIPSRFSGSGSGTDFTLTISSLQPEDVATYFCQQYNSWTTFGSGTKLEIK

test system: 293T_ABCG2_OX cells; test: not given; assay type: cell-based, human; conditions: not given
Protocol: Cytotoxicity Assays. The effect of antibodies on topotecan cytotoxicity was evaluated on 293T_ABCG2_OX cells, 293T cells stably transfected to express ABCG2. Cells were plated in 0.05 mL of Assay Media (DMEM+10% FBS) at 5000 cells/well in white, flat bottom 96-well tissue culture plates. Topotecan was prepared at 2× final assay concentration by serial dilution from 200 uM in assay media containing test antibodies or control antibodies at 100 ug/mL (2× final concentration), or Fumitremorgin C, a small molecule ABCG2 inhibitor at 20 uM (2× final concentration). An equivalent volume (0.05 mL) of the topotecan/antibody mixture was added to the 293T_ABCG2_OX cells in 96-well plates. The plates were then incubated at 37° C., in 5% CO2. After 72-96 hr plates were equilibrated to room temperature and cell viability assessed using Promega® CellTiter-Glo® Luminescent Cell Viability Assay according to the manufacturer's recommended protocol. Luminescence was measured on a Molecular Devices® FlexStation® 3 Multi-Mode Microplate Reader and data analyzed using GraphPad Prism 8.0 software. Half maximal inhibitory concentration (1050) is the concentration of drug (topotecan or other chemotherapy cytotoxic agent) where the response (cell growth) is reduced by 50%.

| Molecule | effect on topotecan cytotoxicity on 293T_ABCG2_OX cells |
| --- | --- |
| B1 | significantly increased the cytotoxic activity of topotecan |

same assay, conditions: cell killing by topotecan on 293T_ABCG2_OX cells; viability relative to IgG control

| Molecule | Killing |
| --- | --- |
| B2 | − (≥75% of IgG control) |
| B3 | − (≥75% of IgG control) |
| B4 | +++ (viability <10% of IgG control) |
| B5 | + (viability ≥30% and <50% of IgG control) |
| B1 | ++ (viability ≥10% and <30% of IgG control) |
| B6 | ++ (viability ≥10% and <30% of IgG control) |
| B7 | − (≥75% of IgG control) |
| B8 | − (≥75% of IgG control) |
| B9 | + (viability ≥30% and <50% of IgG control) |

test system: Panc1/T300 cells; test: Xenograft study with topotecan-resistant Panc1/T300 cells; assay type: in vivo; conditions: not given
Protocol: PANC1 (ATCC, CRL-1469) is a pancreatic ductal epithelial carcinoma cell line. The topotectan-resistant Panc1/T300 cells were developed by continuously incubating PANC1 cells in the culture medium containing increasing concentration of topotecan of 25, 50, 100, 200 and 300 nM. […] The arrows indicate the dosing schedule.

| Molecule | tumor volume, in combination with topotecan |
| --- | --- |
| B4 | efficacious in reducing tumor volume |
| B5 | efficacious in reducing tumor volume |

test system: A549 (ATCC, CCL-185); test: Xenograft study with NSCLC cell line A549; assay type: in vivo; conditions: not given

| Molecule | tumor volume, in combination with topotecan |
| --- | --- |
| B1 | efficacious in reducing tumor volume |

same assay, conditions: compared with 5D3/CPT11 combination

| Molecule | efficacy in combination with CPT11 (Irinotecan) |
| --- | --- |
| B9 | significantly exceeds the efficacy of the 5D3/CPT11 combination |

biological target: T1, ABCG2; test: Flow cytometry binding to 293T cells overexpressing human ABCG2 (293T_ABCG2_OX); design: key to Binding by FACS: binding=“+”; non-significant binding=“−”; conditions: 293T_ABCG2_OX cells
Protocol: (§1) Cell Binding Assays. Antibody binding to cells was evaluated by flow cytometry. 293T cells stably transfected to express human or cynomolgus ABCG2 (293T_ABCG2_OX) were washed once in flow cytometry buffer (PBS+2% FBS+0.02% sodium azide), resuspended at 2×10^6 cells/mL in flow cytometry buffer, and dispensed into 96-well microtiter plates at 0.1 mL/well. Recombinant antibodies were added to cells at 5 ug/mL for initial binding confirmation, or serially diluted from 100 ug/mL in flow cytometry buffer. After incubating cells on ice for 30 min, cells were washed twice with flow cytometry buffer. Bound antibody was detected with PE-labeled F(ab′)2 fragment goat anti-human IgG (Jackson ImmunoResearch) and evaluated on an Attune NxT flow cytometer. EC50 is calculated to be the concentration of antibody that gives half maximal response.

| Molecule | Binding by FACS |
| --- | --- |
| B2 | + |
| B3 | + |
| B4 | + |
| B5 | + |
| B1 | + |
| B6 | + |
| B7 | + |
| B8 | + |
| B9 | + |

same assay, conditions: 293T_ABCG2_OX cells; read-out: Affinity for human ABCG2

| Molecule | Kd [nM] |
| --- | --- |
| B9 | 33 |

same assay, conditions: in words; FIGS. 7-11, 21

| Molecule | binding to 293T cells overexpressing human ABCG2 |
| --- | --- |
| B4 | strong binding |
| B1 | strong binding |

test system: cynomolgus ABCG2; test: Flow cytometry binding to 293T cells overexpressing cynomolgus ABCG2; design: key to Cynomolgus ABCG2 binding: binding=“+”; non-significant binding=“−”; conditions: not given
Protocol: as §1

Chain of cynomolgus ABCG2 (as listed by the source): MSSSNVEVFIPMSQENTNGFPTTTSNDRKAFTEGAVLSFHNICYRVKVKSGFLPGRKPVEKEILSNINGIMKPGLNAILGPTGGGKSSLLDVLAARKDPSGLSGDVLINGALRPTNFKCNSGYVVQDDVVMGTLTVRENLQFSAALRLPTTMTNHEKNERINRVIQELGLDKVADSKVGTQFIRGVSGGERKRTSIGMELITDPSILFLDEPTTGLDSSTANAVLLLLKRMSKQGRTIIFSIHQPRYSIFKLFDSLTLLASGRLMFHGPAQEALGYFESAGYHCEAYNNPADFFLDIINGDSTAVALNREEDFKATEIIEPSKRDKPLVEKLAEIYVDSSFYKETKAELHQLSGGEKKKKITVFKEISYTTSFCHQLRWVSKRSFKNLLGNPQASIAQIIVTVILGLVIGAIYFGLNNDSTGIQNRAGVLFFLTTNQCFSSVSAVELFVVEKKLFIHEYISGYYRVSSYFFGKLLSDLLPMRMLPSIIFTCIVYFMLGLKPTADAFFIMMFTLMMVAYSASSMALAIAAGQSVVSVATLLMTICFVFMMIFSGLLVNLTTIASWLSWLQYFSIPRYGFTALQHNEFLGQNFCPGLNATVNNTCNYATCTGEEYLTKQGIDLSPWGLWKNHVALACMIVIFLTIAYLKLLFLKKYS

| Molecule | Cynomolgus ABCG2 binding |
| --- | --- |
| B2 | − |
| B3 | − |
| B6 | + |
| B7 | − |
| B8 | − |
| B9 | + |

same assay, conditions: in words; FIGS. 7-11, 21

| Molecule | binding to 293T cells overexpressing cynomolgus ABCG2 |
| --- | --- |
| B4 | strong binding |
| B1 | strong binding |

biological target: T1, ABCG2; test: not given; assay type: cell-based; conditions: not given
Protocol: 293T_ABCG2_OX cells were washed several times and aliquoted into 96-well plates as 50 μl aliquots/well at a cell density of 2×10e6 cells per ml in phenol red-free DMEM. Cells were mixed with 50 μl antibodies or the small molecule inhibitors of ABCG2:-fumitremorgin C (FTC), or its tetracyclic analogue K0143, with a final concentration of 1 μM. Cells were then incubated in the presence of 2.5 μM Mitoxantrone 1 h at 37° C. The cells were subsequently washed twice and finally resuspended in […] PBS. Mitoxantrone fluorescence was measured using excitation at 635 nm and emission at 647 nm. Protocols was measuring efflux blockade are found in Szabo E, et al., PLoS One. 2018 Jan. 17; 13(1):e0190629; Deeken J F, et al., Mol Pharmacol. 2009 November; 76(5):946-56).

| Molecule | Block Efflux | efflux inhibition activity |
| --- | --- | --- |
| B2 | − |  |
| B3 | − |  |
| B4 | ++ |  |
| B5 | + |  |
| B1 | + | strong efflux inhibition activity |
| B6 | ++ |  |
| B7 | − |  |
| B8 | − |  |
| B9 | + | strong efflux inhibition activity |
